{
  "source": "patent US9259432B1",
  "about": "“Composition and methods for targeted delivery of a therapeutic compound to the brain or spinal cord of a subject for treatment of neurodegenerative diseases” (Parminder J. S. Vig, priority 2011, dated 2016)",
  "molecules": {"B1": {"name": "S100B: glial secreted EF-hand calcium binding protein, purchased from Sigma-Aldrich; applied to cells as neurotoxic stimulus (protein, UniProt P04271 2-92, looked up)", "Protein S100-B": "SELEKAMVALIDVFHQYSGREGDKHKLKKSELKELINNELSHFLEEIKEQEVVDKVMETLDNDGDGECDFQEFMAFVAMVTTACHEFFEHE"}},
  "assay_type_in_all_cases": "cell-based",
  "key": {"[1]": {"tested_on": "differentiated GFP-ATXN1[82Q] SHSY5Y cells", "assay": "Neurite changes after S100B treatment, mutant ataxin-1 cells", "conditions": "3.0 μM S100B 48 hrs, vs untreated", "protocol": "FIG. 15: GFP-ATXN1[82Q] SHSY5Y stable cells were placed on 2-well slides and subjected to treatment with 25 nM TPA for 3 days to produce differentiated SHSY5Y cells. Next, slides were fixed and probed with (a &b) GFP, (a) Synaptophycin and (b) RAGE antibodies and fluorescent secondary antibodies Alexa 488 and Alexa 546 followed by DAPI staining. Scale Bars: […]. Differentiated SHSY5Y cells were treated with 3.0 μM S100B for 48 hrs and neurite changes were visualized under the microscope. (c) Data is shown as MEAN±STDEV of the percentage of cells with neurites, n=100. (d) Data is shown as MEAN±SE of neurite length, n=100. Statistics were taken using student's t-test. *P<0.05.\nSHSY5Y cells (Invitrogen, Carlsbad, Calif., USA) were maintained in DMEM/F12 media (Fisher, Houston, Tex., USA) supplemented with 15% FBS, penicillin-streptomycin (Sigma), and grown in an incubator at 37° C. in the presence of 5% CO2. S100B was labeled with Alexa 488 labeling kit (Invitrogen) to produce 488-S100B. […] Next, cells were washed then treated with 1 μM 488-S100B for 3 hrs and S100B uptake was analyzed by Epi-fluorescence or by Beckman Cytometric FC 500 flow cytometer as previously described (Bidwell et al., 2009). For flow cytometry experiments, 488-S100B uptake was measured by quenching extracellular fluorescence by coating the cells with Trypan Blue (Fisher) as described previously (Bidwell et al., 2009). […]"}, "[2]": {"tested_on": "differentiated GFP-ATXN1[82Q] SHSY5Y cells", "assay": "Oxyblot of S100B induced oxidized proteins", "conditions": "5 μM S100B 2 hrs; compared to GFP-ATXN1[30Q] cells", "protocol": "FIG. 16: (a) GFP-ATXN1[82Q] and (b) GFP-ATXN1[30Q] SHSY5Y stable cells were placed on 12-well plates and subjected to treatment with 25 nM TPA for 3 days to produce differentiated SHSY5Y cell lines. Next, the cells were pretreated with 50 μM Synb1-ELP-TRTK for 1 hr then treated with 5 μM S100B for 2 hrs or treated with 150 μM H2O2 for 2 hrs, where control cells were treated with serum free media for 3 hrs. Then the cells were lysed and analyzed with the Oxyblot kit and a β-tubulin antibody. Shown is the resulting oxyblot/western blot data. (c) Optical densities of the protein bands were taken using ImageJ software. Graphs shown the ratio of oxidized protein/β-tubulin protein normalized to the control. Statistics were taken using the student's t-test. * GFP-ATXN1[82Q]: S100B vs Synb1-ELP-TRTK+S100B, P<0.05. ψ GFP-ATXN1[82Q]: H2O2 vs GFP-ATXN1[30Q]: H2O2, P<0.05.\nGFP-ATXN1[82Q] or GFP-ATXN1[30Q] stable cells were placed on 12-well plates at a concentration of 60,000 cells per well. Cells were treated with 25 nM TPA for 3 days to produce differentiated SHSY5Y cell lines. […] Cell lysates were analyzed with the Oxyblot kit according to manufacturer's protocol ([…]) and with a β-tubulin antibody (Sigma), where 5 μgs of protein was loaded in each well of 4-20% acrylamide gel (Bio-Rad Laboratories, Hercules, Calif., USA). […]"}, "[3]": {"tested_on": "differentiated GFP-ATXN1[30Q] SHSY5Y cells", "assay": "Neurite changes after S100B treatment, normal ataxin-1 cells", "conditions": "3.0 μM S100B 48 hrs, vs untreated"}},
  "data": [
    {"molecule": "B1", "values": [
      {"measurement": "neurite length", "setting": "[1]", "value": "significantly reduced"},
      {"measurement": "percentage of cells with neurites", "setting": "[1]", "value": "significant reduction"},
      {"measurement": "level of oxidized proteins after S100B treatment", "setting": "[2]", "value": "greater level of oxidized proteins"},
      {"measurement": "effect on neurites (percentage of cells with neurites, neurite length)", "setting": "[3]", "value": "no significant effect"}
    ]}
  ]
}
